Data set [1] concerns the target T1, AR-DBD (EMSA) (UniProt P10275 556-629). As to the kind of experiment: EMSA; 100 fmol probe, AR-DBD titration, poly(dI-dC); BLI: 20 mM Tris pH 8, 150 mM NaCl, 5% glycerol, 2 mM DTT, 0.1 mM PMSF, temperature not stated; EMSA: 10 mM Tris pH 7.5, 50 mM KCl, DTT (1 mM); 2.5 mM with 0.25%. The conditions noted are these: protein: recombinant, chain copies: 2, blunt. Background: In EMSA bound probe runs differently from free probe, usually more slowly.

Data set [2] addresses T1, AR-DBD (EMSA). As to the kind of experiment: competition; 20 nmol unlabeled competitor (so in the source) vs labeled TMPRSS2-ARE; BLI: 20 mM Tris pH 8, 150 mM NaCl, 5% glycerol, 2 mM DTT, 0.1 mM PMSF, temperature not stated; EMSA: 10 mM Tris pH 7.5, 50 mM KCl, DTT (1 mM); 2.5 mM with 0.25%. To be noted: protein: recombinant; chain copies: 2; blunt.

T1 sequence (P10275 556-629): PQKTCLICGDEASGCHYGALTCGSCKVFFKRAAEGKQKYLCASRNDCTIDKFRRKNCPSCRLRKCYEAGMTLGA

B1: CHST11-ARE (EMSA probe) (dsDNA)
DNA 1: AGATGCCCCAGTGTTCTAG
DNA 2: CTAGAACACTGGGGCATCT
Consider B1, for which, in data set [1], the binding result was “binds”.

B2: CHST11-ARE (unlabeled competitor) (dsDNA)
DNA 1: AGATGCCCCAGTGTTCTAG
DNA 2: CTAGAACACTGGGGCATCT
With B2, in data set [2], the binding result was “binds”.

B3: PSA-ARE (EMSA probe) (dsDNA)
DNA 1: TACAAATAGGTTCTTGGAGTACTTTACTAGGCATGGACAATG
DNA 2: CATTGTCCATGCCTAGTAAAGTACTCCAAGAACCTATTTGTA
On to B3, for which the binding result in data set [1] (label: 5' IRD700 on strand 1) is “binds”.

These data come from paper PMC9376089, “Reformation of the chondroitin sulfate glycocalyx enables progression of AR-independent prostate cancer”.
